# Values quoted from earlier work, collected in patent publication US20200129630A1, “METHODS FOR TREATING CANCER” (BicycleRD Limited, priority 2018, published 2020).
# Like-named read-outs stand apart in the source and are kept apart here.
# B1: Cantuzumab mertansine: Anti-CanAg ADC with DM1, SPP cleavable linker (conjugate, chains of the INN, looked up)
# VH: QVQLVQSGAEVKKPGETVKISCKASDYTFTYYGMNWVKQAPGQGLKWMGWIDTTTGEPTYAQKFQGRIAFSLETSASTAYLQIKSLKSEDTATYFCARRGPYNWYFDVWGQGTTVTVSS
# VL: DIVMTQSPLSVPVTPGEPVSISCRSSKSLLHSNGNTYLYWFLQRPGQSPQLLIYRMSNLVSGVPDRFSGSGSGTAFTLRISRVEAEDVGVYYCLQHLEYPFTFGPGTKLELK
# modifications: mertansine (DM1) via SPP linker
# B2: Lorvotuzumab mertansine: anti-CD56 ADC with DM1, SPP cleavable linker (conjugate, chains of the INN, looked up)
# VH: QVQLVESGGGVVQPGRSLRLSCAASGFTFSSFGMHWVRQAPGKGLEWVAYISSGSFTIYYADSVKGRFTISRDNSKNTLYLQMNSLRAEDTAVYYCARMRKGYAMDYWGQGTLVTVSS
# VL: DVVMTQSPLSLPVTLGQPASISCRSSQIIIHSDGNTYLEWFQQRPGQSPRRLIYKVSNRFSGVPDRFSGSGSGTDFTLKISRVEAEDVGVYYCFQGSHVPHTFGQGTKVEIK
# modifications: mertansine (DM1) via SPP linker
# Key:
# [1] = animals, 58 to 228 mg/m^2 (0.85 and […]^2 DM1) weekly
# [2] = not given; remark: listed apart in the source
Molecule,axonal degeneration [1],DLT (Grade 3) (IV three-times a week),MTD (IV three-times a week),RP2D (every 3 weeks),t1/2 (in vivo) [h],MTD (weekly administration),Recommended Phase 2 dose (RP2D) ([2]; 3 consecutive days every 3 weeks),neurosensory AEs (all grades) ([2]; all patients) [%],Grade 3 or 4 TEAEs hyponatremia and dyspnea (each) ([2]; in vivo),t½ ([2]; in vivo)
B1,mild axonal degeneration,"transaminitis. Hepatic, hematological, and neurosensory","three-times a week [37], The MTD was 45 mg/m^2",from this trial was 235 mg/m^2 every 3 weeks (~3.9 mg/m^2,40,115 mg/m^2/week (~1.9 mg/m^2/week DM1) with DLTs,,,,
B2,,,,,,,Recommended Phase 2 dose (RP2D) was 60 mg/m^2,17,(each 8.2%)[38]. Lorvotuzumab mertansine is currently,approximately 40 hours
